# From publication PMC8993888
# Legend:
# [1] = target: Ag43^EDL933 α-domain (α^43_EDL933), complete passenger domain with the autochaperone domain, from EHEC O157:H7 EDL933 (E. coli O157:H7 EDL933 (EHEC)); assay: AUC; sedimentation velocity, 2.2 mg/mL, 25 mM HEPES, 150 mM NaCl, pH 7.0, 20 °C, 40,000 rpm, absorbance at 285 nm, c(s) analysis; monomer to dimer
# [2] = target: Ag43^UTI89 α-domain (α^43_UTI89), complete passenger domain with the autochaperone domain, from UPEC UTI89 (E. coli UTI89 (UPEC)); assay: as above
# [3] = target: Ag43b α-domain (α^43b) from UPEC CFT073 (E. coli CFT073 (UPEC)); assay: AUC; sedimentation velocity; α^43b sample concentrated above 30 mg/ml prior to AUC analysis (Supplementary Fig. 7); monomer to dimer
# [4] = target: Ag43a α-domain (α^43a) from UPEC CFT073 (E. coli CFT073 (UPEC)); assay: AUC; sedimentation velocity, 2.2 mg/mL, 25 mM HEPES, 150 mM NaCl, pH 7.0, 20 °C, 40,000 rpm, absorbance at 285 nm, c(s) analysis; monomer to dimer
substance,measurement,setting,value
"Ag43^EDL933 α-domain (α^43_EDL933), complete passenger domain with the autochaperone domain, from EHEC O157:H7 EDL933 (domain or fragment)",stoichiometry N,[1],2
"Ag43^UTI89 α-domain (α^43_UTI89), complete passenger domain with the autochaperone domain, from UPEC UTI89 (domain or fragment)",stoichiometry N,[2],2
Ag43b α-domain (α^43b) from UPEC CFT073 (domain or fragment),stoichiometry N,[3],2
Ag43a α-domain (α^43a) from UPEC CFT073 (domain or fragment),stoichiometry N,[4],2
